{
  "source": "paper PMC11071394",
  "biological_target": "Sg Enc, Family 2B encapsulin shell protein from Streptomyces griseus (expressed in S. coelicolor A3(2)) (Streptomyces griseus)",
  "experiment": "cryo-EM structure",
  "note": "Several values for one entry are separate records, joined by “and”; a condition that tells them apart may be missing. Identical values can stand only once.",
  "data": [
    {"substance": "Sg 2-methylisoborneol synthase (2-MIBS) from Streptomyces griseus, co-expressed with Sg Enc (enzyme)", "values": [
      {"measurement": "2-MIBS dimers per shell (dimers per shell)", "value": "3 and 4"}
    ]},
    {"substance": "Sg Enc, Family 2B encapsulin shell protein from Streptomyces griseus (expressed in S. coelicolor A3(2)) (natural protein)", "values": [
      {"measurement": "stoichiometry N", "value": 60, "unit": "protomers"}
    ]}
  ]
}
